Assay results taken from the supplement of paper PMC10567573.

B1: WEE1 (parent)
chain: FISRTSIPNAASEEGDEDDWASNK

Variants of: B1
Assay: protein stability index of a GFP-peptide fusion (GPS, HEK-293T) (PSI 1-6); higher = more stable
Conditions: c terminus: a fixed tail appended
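Also: lentivirally expressed fusions sorted by FACS into six bins by GFP to DsRed ratio, PSI derived from sequencing read proportions per bin multiplied by bin number.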

Protein stability index, by site and new letter:
S22: M 3.88; N 4.11; P 3.14; Q 3.9; R 3.99; T 4.23; V 3.96; W 2.71; Y 4.08
N23: A 3.94; C 3.73; D 3.92; E 4.22; F 3.94; G 4.33; H 3.76; I 3.79; K 3.93; L 3.45; M 3.57; P 3.67; Q 3.82; R 4.21; S 4.16; T 4.22; V 2.71; W 3.65; Y 3.64
K24: A 4.19; C 4.15; D 4.73; E 4.69; F 4.04; G 4.01; H 3.91; I 4.12; L 4.04; M 3.82; N 4.23; P 4.54; Q 4.46; R 3.08; S 4.53; T 4.12; V 3.58; W 2.94; Y 3.94
